Source: patent publication US20260009052, “CAS12 PROTEINS AND USES THEREOF” (GUANGZHOU REFORGENE MEDICINE CO., LTD., published 2026)
Residue numbers refer to the chain shown, from its start.

What was measured:
[1] = target: T1, C12-279 Mut-02-1-5-426-858-860 (synthetic construct, I1R,L5R,Q186R,D352R,D426R,858R,L860R); assay: cell_activity; PAM TTG
T1 chain: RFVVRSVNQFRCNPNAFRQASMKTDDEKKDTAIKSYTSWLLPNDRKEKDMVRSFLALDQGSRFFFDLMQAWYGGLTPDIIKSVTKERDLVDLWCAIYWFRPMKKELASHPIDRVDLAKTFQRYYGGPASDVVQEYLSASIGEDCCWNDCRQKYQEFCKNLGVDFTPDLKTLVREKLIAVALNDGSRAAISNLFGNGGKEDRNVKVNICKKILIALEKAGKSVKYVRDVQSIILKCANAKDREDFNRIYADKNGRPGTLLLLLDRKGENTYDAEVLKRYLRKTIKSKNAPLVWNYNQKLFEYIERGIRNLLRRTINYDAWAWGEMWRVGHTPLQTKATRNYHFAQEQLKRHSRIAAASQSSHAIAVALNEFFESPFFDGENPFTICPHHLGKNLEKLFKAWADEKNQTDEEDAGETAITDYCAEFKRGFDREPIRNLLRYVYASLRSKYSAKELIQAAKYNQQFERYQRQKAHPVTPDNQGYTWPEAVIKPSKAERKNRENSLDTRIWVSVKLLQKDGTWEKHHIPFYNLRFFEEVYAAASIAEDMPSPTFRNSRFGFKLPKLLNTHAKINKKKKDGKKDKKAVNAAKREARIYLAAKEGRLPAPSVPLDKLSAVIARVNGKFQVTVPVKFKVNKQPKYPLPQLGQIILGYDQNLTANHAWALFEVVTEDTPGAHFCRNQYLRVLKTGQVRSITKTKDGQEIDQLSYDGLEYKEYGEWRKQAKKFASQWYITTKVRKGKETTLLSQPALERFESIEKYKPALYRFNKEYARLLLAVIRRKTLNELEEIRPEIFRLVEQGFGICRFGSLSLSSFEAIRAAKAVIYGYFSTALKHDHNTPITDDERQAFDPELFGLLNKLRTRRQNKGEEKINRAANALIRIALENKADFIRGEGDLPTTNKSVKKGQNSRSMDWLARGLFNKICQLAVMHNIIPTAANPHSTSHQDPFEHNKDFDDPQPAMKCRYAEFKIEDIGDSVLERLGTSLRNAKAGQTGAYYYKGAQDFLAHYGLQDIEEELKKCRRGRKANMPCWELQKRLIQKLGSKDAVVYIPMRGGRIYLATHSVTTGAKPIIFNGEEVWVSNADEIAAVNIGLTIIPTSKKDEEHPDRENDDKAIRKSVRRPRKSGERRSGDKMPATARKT

[2] = target: T2, C12-279 Mut-02-1-426-846-858-860 (C12-279-V4) (synthetic construct, I1R,Q186R,D352R,D426R,846R,858R,L860R); assay: cell_activity; PAM TTG; mutant PAM 5'-WTN-3' by Example 17
T2 chain: T1 chain with R5L, F846R

B1: C12-279 Reporter3 sgRNA ; Reporter3 target (ssRNA ; dsDNA)
RNA: GUAAUGCGUCUCCCAUUGACGCCUCACCUCGCGACGCAAUGAUG
DNA 1: CTCACCTCGCGACGCAATGATG
DNA 2: CATCATTGCGTCGCGAGGTGAG
[1]
  binding signal: 3.77 fold of C12-279
[2]
  binding signal: 3.88 fold of C12-279
